This is an account of results in paper PMC5849709, “Structure-based design of chimeric antigens for multivalent protein vaccines” (Nature Communications, 2018).

What all share (experiment): SPR
(Surface plasmon resonance follows binding to a sensor surface in real time, without labels.)

Test [1] addresses fHbp^V1.1:PorA^117/P1.16 (N. meningitidis) (UniProt Q9JXV4).
For test [2], the target named is fHbp^V1.1:PorA^151/P1.16 (N. meningitidis) (UniProt Q9JXV4).
In test [3] the target is fHbp^V1.1:PorA^267/P1.16 (N. meningitidis) (UniProt Q9JXV4).
For test [4], the target named is fHbp^V1.1:PorA^294/P1.16 (N. meningitidis).
The target in test [5] is fHbp^V1.1:PorA^309/P1.16 (N. meningitidis).
Test [6] addresses T1, factor H binding protein (fHbp) peptide V1.1, N-terminally truncated, soluble (N. meningitidis, UniProt Q9JXV4 25-274).
T1 sequence: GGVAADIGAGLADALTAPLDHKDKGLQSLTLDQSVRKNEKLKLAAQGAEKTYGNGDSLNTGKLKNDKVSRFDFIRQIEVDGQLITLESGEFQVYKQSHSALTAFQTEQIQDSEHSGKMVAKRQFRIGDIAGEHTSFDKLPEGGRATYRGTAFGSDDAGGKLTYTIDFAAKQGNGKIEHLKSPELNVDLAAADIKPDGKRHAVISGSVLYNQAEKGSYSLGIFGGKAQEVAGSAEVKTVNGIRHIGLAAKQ
Conditions: both partners purified.

Consider “domains 6 and 7 of human complement factor H (CFH6/7) (from UniProt P08603 321-444) (domain or fragment)”, for which the equilibrium dissociation constant (Kd) (commonly a measure of binding affinity in units of concentration) in test [1] was found to be 2.3 nM; in test [2], 2.3 nM; in test [3], 28 nM; in test [4], 2.7 nM; in test [5], 5.5 nM.

B1: domains 6 and 7 of human complement factor H (CFH6/7) (domain or fragment, UniProt P08603 321-444, looked up)
chain: TLKPCDYPDIKHGGLYHENMRRPYFPVAVGKYYSYYCDEHFETPSGSYWDHIHCTQDGWSPAVPCLRKCYFPYLENGYNQNYGRKFVQGKSIDVACHPGYALPKAQTTVTCMENGWSPTPRCIR
As to B1, the affinity in test [6], expressed as Kd, was 3.6 ± 0.4 nM.
